Consider two proteins from PMC11117311.

Series [1] is described as follows: immunofluorescence, RBE cells. Particulars: glycan lost; control: FLAG-K18WT.
Series [2] is described as follows: CHX chase 8 h, FLAG-K18 remaining by blot. Particulars: glycan lost; control: FLAG-K18-WT.
Series [3] can be described thus: [U-13C6] glucose tracing, LC-MS/MS, HuCCT1. Particulars: glycan lost; control: shK18 + WT.
Series [4] in a line: HA-ubiquitin, MG-132, anti-FLAG IP, anti-HA blot. The note with it: glycan lost; control: FLAG-K18-WT.
A short description of series [5]: CHX chase up to 8 h, K18 remaining by blot. Particulars: glycan lost; control: DMSO.

B1: Keratin 18 (K18): S30A (protein)
parent chain: MSFTTRSTFSTNYRSLGSVQAPSYGARPVSSAASVYAGAGGSGSRISVSRSTSFRGGMGSGGLATGIAGGLAGMGGIQNEKETMQSLNDRLASYLDRVRSLETENRRLESKIREHLEKKGPQVRDWSHYFKIIEDLRAQIFANTVDNARIVLQIDNARLAADDFRVKYETELAMRQSVENDIHGLRKVIDDTNITRLQLETEIEALKEELLFMKKNHEEEVKGLQAQIASSGLTVEVDAPKSQDLAKIMADIRAQYDELARKNREELDKYWSQQIEESTTVVTTQSAEVGAAETTLTELRRTVQSLEIDLDSMRNLKASLENSLREVEARYALQMEQLNGILLHLESELAQTRAEGQRQAQEYEALLNIKVKLEAEIATYRRLLEDGEDFNLGDALDSSNSMQTIQKTTTRRIVDGKVVSETNDTKVLRH
Turning to B1, the “other: filament organisation” value in series [1] is listed as “changes”. Also, the degradation_or_half_life result in series [2] was “decreases”. Besides, the “other: TCA cycle metabolite levels” value in series [3] is “changes”. Also, the “other: ubiquitination” value in series [4] was “increases”.

B2: Keratin 18 (K18): 5S (Ac45SGlcNAc) (protein)
parent chain: MSFTTRSTFSTNYRSLGSVQAPSYGARPVSSAASVYAGAGGSGSRISVSRSTSFRGGMGSGGLATGIAGGLAGMGGIQNEKETMQSLNDRLASYLDRVRSLETENRRLESKIREHLEKKGPQVRDWSHYFKIIEDLRAQIFANTVDNARIVLQIDNARLAADDFRVKYETELAMRQSVENDIHGLRKVIDDTNITRLQLETEIEALKEELLFMKKNHEEEVKGLQAQIASSGLTVEVDAPKSQDLAKIMADIRAQYDELARKNREELDKYWSQQIEESTTVVTTQSAEVGAAETTLTELRRTVQSLEIDLDSMRNLKASLENSLREVEARYALQMEQLNGILLHLESELAQTRAEGQRQAQEYEALLNIKVKLEAEIATYRRLLEDGEDFNLGDALDSSNSMQTIQKTTTRRIVDGKVVSETNDTKVLRH
Turning to B2, in series [5], the degradation_or_half_life result was “decreases”.
